Numbering of substitutions follows the chain as printed.
B1: M0032-B07: Fab that binds human MMP-14; DNA LV SEQ ID NO: 20, HV SEQ ID NO: 21 (antibody, V domains shown)
VH: EVQLLESGGGLVQPGGSLRLSCAASGFTFSPYLMHWVRQAPGKGLEWVSSIYPSGGITQYADSVKGRFTISRDNSKNTLYLQMNSLRAEDTAVYYCARFFPSHRDYTAFDTWGRGTLVTVSS
VL: QSVLTQEPSLTVSPGGTVTLTCASNTGAVTSGSYANWFQQKPGLTPRALIYSGTNKYSWTPARFSGSLFGGKAALTLSGVLPEDEAEYYCLVYYGGVWVFGGGTKLTVL
modifications: Synthetically generated oligonucleotide
B2: M0040-A11: human antibody (Fab, IgG) that binds and inhibits MMP-14; HC SEQ ID NO: 164, LC SEQ ID NO: 165 (antibody, V domains shown)
VH: EVQLLESGGGLVQPGGSLRLSCAASGFTFSHYVMFWVRQAPGKGLEWVSRIVPSGGATMYADSVKGRFTISRDNSKNTLYLQMNSLRAEDTAVYYCARDRPLYDSSGYVDYWGQGTLVTVSS
VL: QSALTQPPSASGSPGQSVTISCTGTSSDVGAYNYVSWYQQHPDKAPKLIIYNVNERPSGVPDRFSGSKSGNTASLTVSGLQAEDEADYYCTSYAGSNKIGVSGTGTKVTVL
modifications: Synthetically generated peptide
B3: M0032-B09: Fab that binds human MMP-14; DNA LV SEQ ID NO: 22, HV SEQ ID NO: 23 (antibody, V domains shown)
VH: EVQLLESGGGLVQPGGSLRLSCAASGFTFSIYKMVWVRQAPGKGLEWVSSIGSSGGHTRYADSVKGRFTISRDNSKNTLYLQMNSLRAEDTAVYYCARAPYYYYMDVWGKGTTVTVSS
VL: QDIQMTQSPSSVSASVGDTVTITCRASQGISTWLAWYQHKPGKAPKLLIYAGPSLQSGVPSRFSGSGSGTEFTLTISSLHPEDFATYYCQQLNHYPMTFGQGTRLEIK
modifications: Synthetically generated oligonucleotide
B4: M0044-D08: Fab that binds human MMP-14; DNA LV SEQ ID NO: 138, HV SEQ ID NO: 139 (antibody, V domains shown)
VL: QYELTQPLSVSVALGQTASISCWGHNIRIKNVHWYQQKPGQAPVVVMYIPERFSGSTSGNTATLTISGAQAGDEADYYCQVWDSSTVVFGGGTKLTVL
VH: EVQLLESGGGLVQPGGSLRLSCAASGFTFSKYPMSWVRQAPGKGLEWVSSIWPSGGHTFYADSVKGRFTISRDNSKNTLYLQMNSLRAEDTAVYYCAKNPGLRYAFDNWGRGTMVTVSS
modifications: Synthetically generated oligonucleotide
B5: M0031-C02: human antibody (Fab, IgG) that binds and inhibits MMP-14; HC SEQ ID NO: 144, LC SEQ ID NO: 145 (antibody, V domains shown)
VH: EVQLLESGGGLVQPGGSLRLSCAASGFTFSPYPMGWVRQAPGKGLEWVSSIVSSGGLTLYADSVKGRFTISRDNSKNTLYLQMNSLRAEDTAVYYCARGGRLYDILTGQGAPFDYWGQGTLVTVSS
VL: QDIQMTQSPLSLPVTPGEPASISCRSSQSLLHSNGYYYLDWYLQKPGQSPQLLIYLGSYRASGVPDRFSGSGSGTDFTLKISSVEAEDVGVYYCMQALQTPLTFGGGTRVDIK
modifications: Synthetically generated peptide
B6: M0038-E06: human antibody (Fab, IgG) that binds and inhibits MMP-14; HC SEQ ID NO: 154, LC SEQ ID NO: 155 (antibody, V domains shown)
VH: EVQLLESGGGLVQPGGSLRLSCAASGFTFSPYVMHWVRQAPGKGLEWVSSISPSGGWTYYADSVKGRFTISRDNSKNTLYLQMNSLRAEDMAVYYCARGTGAYGMDVWGQGTTVTVSS
VL: QDIQMTQSPGTLSLSPGDRATLSCGASQLVVSNYIAWYQQKPGQAPRLLMYAGSIRATGIPDRFSGSGSGTDFTLTISRLEPEDFAIYYCQQRSNWPWTFGQGTKVEIK
modifications: Synthetically generated peptide
B7: M0043-F01: Fab that binds human MMP-14; DNA LV SEQ ID NO: 130, HV SEQ ID NO: 131 (antibody, V domains shown)
VL: QSALTQPASVSGSPGQSITISCTGTSSDIGAYRYVSWYQQRPGKAPKLMIFDVTKRPSGVSNRFSGFKSGNTASLTISGLQAEDEADYYCSSFTSGSTFVFGTGTKVTVL
VH: EVQLLESGGGLVQPGGSLRLSCAASGFTFSKYSMYWVRQAPGKGLEWVSSISSSGGYTAYADSVKGRFTISRDNSKNTLYLQMNSLRAEDTAVYYCAIPWGSGSSWGQGTLVTVSS
modifications: Synthetically generated oligonucleotide
B8: M0043-G01: Fab that binds human MMP-14; DNA LV SEQ ID NO: 132, HV SEQ ID NO: 133 (antibody, V domains shown)
VL: QDIQMTQSPSAMSASVGDRVTITCRASQGISSWLAWYQQKPGKAPKLLIYAASSLQSGVPSRFSGSGSGTDFTLTISSLQPEDFATYYCQQANSFPLTFGGGTKVEIK
VH: EVQLLESGGGLVQPGGSLRLSCAASGFTFSFYSMHWVRQAPGKGLEWVSGISSSGGVTKYADSVKGRFTISRDNSKNTLYLQMNSLRAEDTAVYYCARARSTRGFDYWGQGTLVTVSS
modifications: Synthetically generated oligonucleotide
B9: M0044-B03: Fab that binds human MMP-14; DNA LV SEQ ID NO: 136, HV SEQ ID NO: 137 (antibody, V domains shown)
VL: B8 VL with A11S, M12V, G29N, S31Y, K40R, Q56H, N93K, L97V
VH: EVQLLESGGGLVQPGGSLRLSCAASGFTFSQYHMMWVRQAPGKGLEWVSSIGSSGYTKYADSVKGRFTISRDNSKNTLYLQMNSLRAEDTAVYYCAGAVAGTGAFDYWGQGTLVTVSS
modifications: Synthetically generated oligonucleotide

The molecules below were run against T1, MMP-14 (Homo sapiens, UniProt P50281) (assay: Selection and phage ELISA screening of anti-MMP-14 Fabs). Conditions: Fab from FAB310 phage display library.
Type: binding
Outline: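 Phage ELISA screened 95 clones from each of rounds 2 and 3 against biotinylated MMP-14 (1 μg/ml) captured on streptavidin, in TRIS/CaCl2/NaCl pH 7.5. The clones came from Fab library selections on biotinylated MMP-14, either free or TIMP-2-complexed (500 nM round 1, 100 nM later rounds). Elution used 2.5 μM TIMP-2 followed by TEA.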

Row | Molecule | bind to human MMP-14
1 | B1 | bind to human MMP-14
2 | B2 | bind to human MMP-14
3 | B3 | bind to human MMP-14
4 | B4 | bind to human MMP-14
5 | B5 | bind to human MMP-14
6 | B6 | bind to human MMP-14
7 | B7 | bind to human MMP-14
8 | B8 | bind to human MMP-14
9 | B9 | bind to human MMP-14

The molecules below were run against T1, MMP-14 (assay: IC50 for MMP-14 inhibition by Fabs and IgGs). Conditions: Fab.
Type: biochemical
Protocol: MMP-14 binding proteins can be characterized in assays that measure their modulatory activity toward MMP-14 or fragments thereof in vitro or in vivo. For example, MMP-14 can be combined with a substrate such as Mca-Pro-Leu-Ala-Cys(Mob)-Trp-Ala-Arg-Dap(Dnp)-NH2 under assay conditions permitting cleavage by MMP-14. The assay is performed in the absence of the MMP-14 binding protein, and in the presence of increasing concentrations of the MMP-14 binding protein. The concentration of binding protein at which 50% of the MMP-14 activity (e.g., binding to the substrate) is inhibited is the IC50 value (Inhibitory Concentration 50%) or EC50 (Effective Concentration 50%) value for that binding protein.

Row | Molecule | bind to and inhibit human MMP-14
10 | B2 | bind to and inhibit human MMP-14
11 | B5 | bind to and inhibit human MMP-14
12 | B6 | bind to and inhibit human MMP-14

These molecules were tested against T2, MMP-16 (Homo sapiens, UniProt P51512) (assay: Cross-reactivity of Fabs and IgGs with MMP-16 (Example 8)). Conditions: Fab 100 nM; 5 nM MMP16; 30 minutes at 30° C.; 10 μM substrate.
Type: biochemical
Parameters: key to MMP-16 (cross-reactivity, class symbol): X: Does not inhibit MMP-16 at [I] = 100 nM level
Protocol: For the studies summarized in Tables 13 and 14, 100 nM anti-MMP-14 Fab/IgG were incubated with 5 nM MMP16 for 30 minutes at 30° C., 10 μM of substrate was added, and the MMP-16 activity was measured.

T2 sequence (P51512 120-607): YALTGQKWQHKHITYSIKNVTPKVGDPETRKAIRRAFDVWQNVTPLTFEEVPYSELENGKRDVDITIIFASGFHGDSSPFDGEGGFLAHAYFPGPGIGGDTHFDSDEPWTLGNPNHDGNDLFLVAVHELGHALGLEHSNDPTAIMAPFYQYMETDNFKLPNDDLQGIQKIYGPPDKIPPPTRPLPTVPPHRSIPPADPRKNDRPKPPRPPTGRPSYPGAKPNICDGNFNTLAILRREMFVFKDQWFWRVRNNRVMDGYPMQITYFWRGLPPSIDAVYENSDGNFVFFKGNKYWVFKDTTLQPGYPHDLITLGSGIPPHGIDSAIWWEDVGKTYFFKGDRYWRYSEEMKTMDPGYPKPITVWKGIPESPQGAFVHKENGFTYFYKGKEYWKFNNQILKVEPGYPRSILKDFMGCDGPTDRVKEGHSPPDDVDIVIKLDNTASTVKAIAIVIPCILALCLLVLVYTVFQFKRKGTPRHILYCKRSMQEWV

Row | Molecule | MMP-16 (cross-reactivity, class symbol)
13 | B2 | X
14 | B5 | X
15 | B6 | X

Same assay, conditions: IgG 100 nM; 5 nM MMP16; 30 minutes at 30° C.; 10 μM substrate

Row | Molecule | MMP-16 (cross-reactivity, class symbol)
16 | B2 | X
17 | B5 | X
18 | B6 | X

Each molecule was assayed against T2, MMP-16 (assay: Cross-reactivity of Fabs with MMP-16 (Example 9)). Conditions: Fab, 100 nM final inhibitor concentration, 5 nM MMP-16.
Type: biochemical
Parameters: key: X: Do not inhibit MMP-16 or MMP-24 at [I] = 100 nM level; Y: partially inhibit at [I] = 100 nM level
Protocol: (§1) For the studies summarized in Table 15, 1 μM of anti-MMP-14 Fab/IgG (100 nM final inhibitor concentration) were incubated with 5 nM of MMP-16 or 5 nM of MMP-24 for 30 minutes at 30° C., 10 μM of substrate was added, and the MMP-16 activity was measured.

Row | Molecule | MMP-16 (cross-reactivity, class symbol)
19 | B2 | X
20 | B5 | X
21 | B6 | X

Each molecule was assayed against MMP-24 (Homo sapiens, UniProt Q9Y5R2) (assay: Cross-reactivity of Fabs with MMP-24 (Example 9)). Conditions: Fab, 100 nM final inhibitor concentration; 5 nM MMP-24.
Type: biochemical
Parameters: key to MMP-24 (cross-reactivity, class symbol): X: Do not inhibit MMP-16 or MMP-24 at [I] = 100 nM level; Y: partially inhibit at [I] = 100 nM level
Protocol: as §1

Sequence of MMP-24 (Q9Y5R2 156-645): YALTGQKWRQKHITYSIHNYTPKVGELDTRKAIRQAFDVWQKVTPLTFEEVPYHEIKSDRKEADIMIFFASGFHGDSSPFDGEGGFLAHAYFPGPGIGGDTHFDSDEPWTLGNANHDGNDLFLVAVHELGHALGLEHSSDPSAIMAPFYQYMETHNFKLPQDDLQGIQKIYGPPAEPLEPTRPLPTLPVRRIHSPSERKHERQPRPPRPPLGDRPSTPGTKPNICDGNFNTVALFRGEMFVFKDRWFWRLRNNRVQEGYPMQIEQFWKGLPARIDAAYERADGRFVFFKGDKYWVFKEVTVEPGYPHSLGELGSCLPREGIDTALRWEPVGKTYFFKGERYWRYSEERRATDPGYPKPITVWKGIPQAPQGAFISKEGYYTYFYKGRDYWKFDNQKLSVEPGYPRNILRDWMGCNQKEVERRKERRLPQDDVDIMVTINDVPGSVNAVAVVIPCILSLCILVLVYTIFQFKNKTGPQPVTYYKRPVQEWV

Row | Molecule | MMP-24 inhibition | MMP-24 (cross-reactivity, class symbol)
22 | B2 | Y 58% inhibition | –
23 | B5 | Y 54% inhibition | –
24 | B6 | – | X
